One data set concerns the target CTGF (CCN2) (UniProt P29279 27-349). Briefly: SPR; SPR: PBS running buffer, CTGF on CM5 chip, aptamer 9.375-600 nM, 10 ul/min (SA chip with biotinylated aptamer for cytokines and CTGF deletion mutants); dot blot: nitrocellulose, 10% BSA block, 1 uM biotinylated aptamer, room temperature; pH not stated. Conditions: protein: commercial; label: biotin or Cy5 depending on assay.

Another data set concerns the target murine CTGF (SPR) (mouse, UniProt P29268 26-348). The data set is described as above. The settings on record: protein: recombinant; label: biotin or Cy5 depending on assay.

Sequence of murine CTGF (SPR) (P29268 26-348): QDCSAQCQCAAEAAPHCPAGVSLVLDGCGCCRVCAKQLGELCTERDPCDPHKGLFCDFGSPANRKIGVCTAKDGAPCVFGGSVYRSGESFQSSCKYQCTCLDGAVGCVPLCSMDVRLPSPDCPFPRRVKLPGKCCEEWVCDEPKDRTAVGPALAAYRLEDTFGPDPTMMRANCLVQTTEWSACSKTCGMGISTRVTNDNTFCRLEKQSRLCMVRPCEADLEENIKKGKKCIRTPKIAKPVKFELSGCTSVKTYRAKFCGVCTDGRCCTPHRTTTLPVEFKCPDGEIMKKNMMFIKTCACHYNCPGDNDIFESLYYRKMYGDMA
Sequence of CTGF (CCN2) (P29279 27-349): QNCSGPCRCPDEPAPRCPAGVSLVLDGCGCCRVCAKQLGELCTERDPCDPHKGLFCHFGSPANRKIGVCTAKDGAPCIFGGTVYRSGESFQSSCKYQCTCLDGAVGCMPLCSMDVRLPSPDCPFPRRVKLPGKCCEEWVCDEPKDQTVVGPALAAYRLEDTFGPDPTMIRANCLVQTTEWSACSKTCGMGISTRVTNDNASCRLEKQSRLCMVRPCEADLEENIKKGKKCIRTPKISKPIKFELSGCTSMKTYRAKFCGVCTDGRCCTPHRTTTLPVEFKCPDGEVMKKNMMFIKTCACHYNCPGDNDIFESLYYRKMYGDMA

In general, Kd refers to the constant that tells how readily two partners part at equilibrium. Regarding AGGCCGGGAGGGTACCCATTGATGGTGTGATGACTGCCT (ssDNA, 3' PEG (high molecular mass)) [AptW2-1-39-PEG], the affinity in the data set with CTGF (CCN2), expressed as Kd, was 7.86 nM. Besides, the binding result with murine CTGF (SPR) is recorded as “binds”.

The values are drawn from paper PMC9389230, “Connective tissue growth factor-targeting DNA aptamer suppresses pannus formation as diagnostics and therapeutics for rheumatoid arthritis”.
